Reference: the supplement of paper PMC9170038

System: K4 kissing-loop RNA reporter
Assay: apparent KD of K4 kissing-loop reporter; higher = weaker reporter binding
Settings: Eterna round: R107; input ligand: FMN 200 uM
Procedure: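 RNA-MaP round R107: designed RNA switches with theophylline, tryptophan, arginine or FMN aptamers are transcribed on-chip within common flanks. They are titrated with a labelled K4 kissing-loop RNA reporter in RNA-MaP buffer (100 mM Tris pH 7.5, 80 mM KCl, 4 mM MgCl2), without ligand or with the indicated ligand. Median apparent KD per design.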
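Also: bound reporter read as fluorescence of individual clusters on recovered sequencing chips by microscopy, with normalized cluster intensities fitted with a binding model.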

Sequence | apparent KD of K4 kissing-loop reporter [nM]
UACUAUAUUCUGUCGUUUUUAUUAGUUUGUCAGGAUAUCGUUUAUUCGAGAAGGGACACUGUCUAGUGAUGUUAGACAUUUCUUU [#04 K4 FMN A Exclusion] | 68.3
AAUAAAAUCACGGCCGCCACUGAUUUUUUUAUUAGGAGUGAUGUUCCUUUGUCUAUAUACCUUAACAGGACCGGGUGAAUAUUUA [JR_SSTryptoB_Sub022] | 54.3
AGUCGAGAUUAUAGACUCGACAGGUCAGAAGGAGCGACGAAUUCGUCAGGUAGGUCGCUGACAUAGCAGUGAUGUUGCUAUACGG [Arg A SS t1] | 149
UAUCAGAUUACUGAUACCAGUCUAAAGACAGUGAUGUUGUCUGAUCGACCACGAUCAAAGGACCCUUGGCAGCAGUGUACUAUUC [#29 K4 Theophylline B Same State] | 197
GGCCGGUUGAAAGGCCGGCCAGAAACCGAAGGAGCGCGAAGAAACGCAGGUAGGUCGCGGAAAACAUGACCAGUGAUGUUGGUCG | 152
GCCGUAGAUGGAAGGAGCGUGGUUAAUGUAAGUGAUGUUUACGAGGUUAACAAUUGACCGCCACAGGUAGGUCGCCAUCUACGGC | 84.6
UAUGUACGCGGGUAACGGUACAUCGAGGAAGGAGCGUGCGCAGGCACAGGUAGGUCGCCUCAGCGCACGAGUGAUGUUCGUGGGC [Rere] | 221
AGAGUUAUGCGAGGAUAUGCAGUUAGUACUCAAAGAGUACUAACGCAGAGUGAUGUUCUGUGAAACGCAGAAGGUGCAUAACUCA [Omei KL FMN B SS B v4] | 161
CGCAAGCAGCCAGUGAUGUUGGCCGCCUUGCGAGGACCGGUACGGCCGCCACUCGAAGGCGGCUACUGGUAAACCGCCUAACGGA [Onzaenla] | 93.3
UAAUAUAAUCUGUCGUUUACAAUAUUUAGUCAGGAUAUCGUAUAUUCGAGAAGGGACACUAUCUAGUGAUGUUAGAUAUUUCUUU [JR_ExcFMNA_Sub014] | 47.9
AGACUACCUACACUGUCAAUAGACAGUGACUAGGAUAUGCUGAUAAGCAGAAGGAGUGAUGUUCCUGGUAGUCAAAUAAAAUAAU [FmnAX 12 #SwitchBubble #StaticStem #K4Early] | 498
UGAUAGGACAGAAGGAGCGGAAGUGAUGUUUCCAAAAGGCUAAGGUGUCAAAAGACACCCUUCCAGGUAGGUCGCUGUCCUAUCU | 237
CGGCCCGGCGCGGCCGCCACUGUGCCUGGGCGCUUGCCGAGUGAUGUUCGUCGGCGGUCGGGUGGCAGGACCGGGCGCCGGUCCG [BDazzled - #26 SS Tryptophan B] | 137
AGUCGCAGUGAUGUUGCGAUUCCGUUGAGGGAGGAUAUUGGUAAUACAAGAAGGCCCGGCUACGGGAGAUGUUAGCAAUAGGGCC [Exclusion FMN A GF20] | 92
AUUUGUUUAUGUGAUACCAGACUUUGCAGUGAUGUUGCAUUUAUUUUAGAAUAUAAUUUAGUCCCUUGGCAGCACUAUGUAUUUA [JR_SSTheophyB_Sub008] | 67.1
GGAUAGGACAGAGGAUAUGGACAGUCUACAAAGUAGGCUGAAUAAAUCCUUGAAUGGAGUGAUGUUCCAGAAGGCUGUCCUAUCG [FmnBX 22 #SwitchBubble #StaticStem #Palindromic] | 337
UAGCGGGCGAUUCGACGUGCGUCCAGUCAUCGAGGACCGGUACGGCCGCCACUCGCCGGAGUGAUGUUCCGGUACGUCAUAUAAU [theeternabot_sameState_KL_Trp_A_35] | 406
UGUCAUUGGUCGGCCGCCACUAUAAUAAAAGAGUGAUGUUCUAAAAGACGGACAAAAGUCUGUCAUAGGACCGGGACCGAUGACU [TrypBS 25 #SwitchBubble #StaticStem] | 822
AUUAAUAACAGAGGAUAUGCAUUUUUAUUAUUUUUUAUUAUUAUAUGCAGUGAUGUUGCAUAUUAAGCAGAAGGCUGAUUUAUUU [JR_SSFMNB_Sub013] | 117
GCACUUCUCAGUGAUGUUGAGUAAUCGGAAGGAGCGCGUGAAAACGCAGGUAGGUCGCCGAUACAUGAAGUAUCUUCGUGUGUGC [Arginine A K4 25] | 306
ACGUGUCACUGAAGGAGCGUCUACCGAAUACGAGUGAUGUUGGUAUACCACUUAUAUAGUGGACAGGUAGGUCGCAGUGAUACGU [Arg B Ex t4] | 987
AAUCGCAGUGAUGUUGCGAUUCCGUUGAGGGAGGAUAUUGGUAAUACAAGAAGGUUCGGUUACGGGAGAUGUUAGUAAUAGGGCC [Exclusion FMN A GF21] | 46.2

Sequence | apparent KD of K4 kissing-loop reporter [nM]
CUUAAGAUAUGAGUGAUGUUUAUGUCCGAAGGAGCGUGCGAAAGUACAGGUAGGUCGCGGAUGUGAGUGAUGUUUAUGUAAGCGA [KL-XArg-A14 #analogue] | 121
GGUAGCAUGGCGGCCGCCACUUCGAAUAAGUGAUGUUUAUUUGACUGAGCACCCUAUGCCAUGUGAAGGACCGGGCCAUGCUACC | 147
CGUACGGUUUCUUUCUUUCCGUACGAGUGCCGAGGACCGGUACGGCCGCCACUCGCUACAGCCUAGUGAUGUUAGGCAUUUCUUU | 104
UACCUGCUGUCAGGAUAUGAGUGCAGUGAUGUUGCACUCAACGUAACCAUCUUGAAAUACAAACACUCAGAAGGGACGCACGAAG [Isattema] | 183
UUGGAAAUCAGAAGGAGCGUCUAAAAUGAAGGAACCAGUGAUGUUGGUUUUAUUUAAUGAAGACAGGUAGGUCGCUGAAUUUUUA [Same State Arginie B GF 18] | 91.4
CGCAGUGAUGUUGCGAGUAGAUACAGGGAAGGAGCGCCGUAGUAGGCAGGUAGGUCGCCCACGCAGUGAUGUUGCGUCAUAGGGU [Exclusion Arginine A GF 5] | 104
GUCUGAUGCGUUGAUACCAGUCCUUCAGUGAUGUUGCAAGCGCGGCCUAUCAAGCAAUCCGACCCUUGGCAGCAAUAGGUCCGAA [theeternabot_exclusion_KL_Theo_B_9] | 892
AAACUUGCAGUGAUGUUGCAAGUAGGUGAUACCAGCAUCGAAAGAUGCCCUUGGCAGCACCAAAACAUCACUUAGGUGCUGUCUA [(H1)-(H2)-(T1)-(T2)-(H)'-(T)'_Design6] | 757
CUUGGUGGCUACAUCAGGAAUUGCGGCGGAAAGGAUAUUCAUUGGCGAAGAAGGUUCCAAGUGACGAGUGAUGUUCUUCGUAAGG [theeternabot_sameState_KL_FMN_A_13] | 422
AGCGGCCAGUCGGCCGCCACUCCAGGCAGUGAUGUUGCUAAGUUUCUACUAGAGUGAUGUUCUAAGAGGACCGGGACUGACGUAU [Exclusion Tryptophan B Gf 8] | 178
UGUCAUUGGUCGGCCGCCACUUCGGUCAAAGACCAUAAAGAGUGAUGUUCUUAAGACGAAAGUCGAAGGACCGGGACCGAUGACU [TrypBS 11 #SwitchBubble #K4Middle] | 1110
AUGGUUGUCGUAGGAUAUGUAGGAUAUUCCUAUAGCAGUGAUGUUGCUAAUAUCUUGGAAAGAAGGACAGAAGGACGAUAACCAC [KL-SSFMN-B2 #analogue] | 114
AGUAGGAAACUACAAUCCUCUCUUACUGAAGGAGCGCGUGAAAACGCAGGUAGGUCGCAGGAUUUGAGAGUGAUGUUCUCAUUAA [Ex Arginine A K4 16] | 201
AAUACGUUCACGGCCGCCACUGAAUAAUUGGUAAGUAGUGAUGUUACUUUACAUAUCUUAUUUAACAGGACCGGGUGAUCGUUUA [JR_Nu_ExcTryptoB_Sub028] | 130
UCACGUGCCAGUGAUGUUGGCGUACGUGAUACCAGAACAAUAAAGUUCCCUUGGCAGCACAAAUAUGCCAAGUUAGAUGUAUGAU [Exclusion Theophylline A GF 3] | 121
ACUUAUUGUGUCGAUACCAGCAGGUGACGACGCCUCAUGGCUGACGAGUGAUGUUCGACUUGCCCUUGGCAGCGACAUACGCCGG [theeternabot_sameState_KL_Theo_B_12] | 354
GAUUCAGUGAUGUUGGAAGGCGAGCGGGAUACCAGCCGAGACUCAGGCCCUUGGCAGCCCACAUAUCCCAGGUAGAUAGUCGCUC [Same State - Theophylline A (Freestyle 10)] | 343
AUUCAGAUCUGAAGGAGCGCGUUGACAUAUUGCUUCAUUGAGCAGUGAUGUUGCUCAGUAACGCAGGUAGGUCGCAGAUCUGGCC [Arg B Ex t7a] | 113
GUGCAGUGAUGUUGCACGAGGAAAGACGAUACCAGCCGUAAAUAAGGCCCUUGGCAGCGUAGGCUAGCAUAAAGUAUGCCAGUCU [Geleerra] | 117
UGACUGGACUGAAGGAGCGCUAAACUCCUAGUGAUGUUAGGGAACCGAGACAAAGUCUCGAGGCAGGUAGGUCGCAGUCUAGUCU [FiskerMod 2 - Jieux - Same State - Arginine B] | 295
GUUUUAUAAGAGGAUACCAGUACAAAUAAAGUACAUUAAUAGUAGAGUGAUGUUCUAAAGUACCCUUGGCAGCUUAGAUUAAGUU [ExTheophylB.E] | 147

Same assay, conditions: Eterna round: R107; input ligand: arginine 13.2 mM

Sequence | apparent KD of K4 kissing-loop reporter [nM]
UACUAUAUUCUGUCGUUUUUAUUAGUUUGUCAGGAUAUCGUUUAUUCGAGAAGGGACACUGUCUAGUGAUGUUAGACAUUUCUUU [#04 K4 FMN A Exclusion] | 90.7
AAUAAAAUCACGGCCGCCACUGAUUUUUUUAUUAGGAGUGAUGUUCCUUUGUCUAUAUACCUUAACAGGACCGGGUGAAUAUUUA [JR_SSTryptoB_Sub022] | 93.4
AGUCGAGAUUAUAGACUCGACAGGUCAGAAGGAGCGACGAAUUCGUCAGGUAGGUCGCUGACAUAGCAGUGAUGUUGCUAUACGG [Arg A SS t1] | 132
UAUCAGAUUACUGAUACCAGUCUAAAGACAGUGAUGUUGUCUGAUCGACCACGAUCAAAGGACCCUUGGCAGCAGUGUACUAUUC [#29 K4 Theophylline B Same State] | 203
GGCCGGUUGAAAGGCCGGCCAGAAACCGAAGGAGCGCGAAGAAACGCAGGUAGGUCGCGGAAAACAUGACCAGUGAUGUUGGUCG | 173
GCCGUAGAUGGAAGGAGCGUGGUUAAUGUAAGUGAUGUUUACGAGGUUAACAAUUGACCGCCACAGGUAGGUCGCCAUCUACGGC | 65.9
UAUGUACGCGGGUAACGGUACAUCGAGGAAGGAGCGUGCGCAGGCACAGGUAGGUCGCCUCAGCGCACGAGUGAUGUUCGUGGGC [Rere] | 243
AGAGUUAUGCGAGGAUAUGCAGUUAGUACUCAAAGAGUACUAACGCAGAGUGAUGUUCUGUGAAACGCAGAAGGUGCAUAACUCA [Omei KL FMN B SS B v4] | 509
CGCAAGCAGCCAGUGAUGUUGGCCGCCUUGCGAGGACCGGUACGGCCGCCACUCGAAGGCGGCUACUGGUAAACCGCCUAACGGA [Onzaenla] | 83.6
UAAUAUAAUCUGUCGUUUACAAUAUUUAGUCAGGAUAUCGUAUAUUCGAGAAGGGACACUAUCUAGUGAUGUUAGAUAUUUCUUU [JR_ExcFMNA_Sub014] | 78.1
